Here are results for one substance from patent US20200108125A1.

The target in the experiment is TrkB (mouse) (UniProt P15209). The experiment can be described thus: cell-based or functional assay.
Sequence of UniProt P15209 (P15209 32-821): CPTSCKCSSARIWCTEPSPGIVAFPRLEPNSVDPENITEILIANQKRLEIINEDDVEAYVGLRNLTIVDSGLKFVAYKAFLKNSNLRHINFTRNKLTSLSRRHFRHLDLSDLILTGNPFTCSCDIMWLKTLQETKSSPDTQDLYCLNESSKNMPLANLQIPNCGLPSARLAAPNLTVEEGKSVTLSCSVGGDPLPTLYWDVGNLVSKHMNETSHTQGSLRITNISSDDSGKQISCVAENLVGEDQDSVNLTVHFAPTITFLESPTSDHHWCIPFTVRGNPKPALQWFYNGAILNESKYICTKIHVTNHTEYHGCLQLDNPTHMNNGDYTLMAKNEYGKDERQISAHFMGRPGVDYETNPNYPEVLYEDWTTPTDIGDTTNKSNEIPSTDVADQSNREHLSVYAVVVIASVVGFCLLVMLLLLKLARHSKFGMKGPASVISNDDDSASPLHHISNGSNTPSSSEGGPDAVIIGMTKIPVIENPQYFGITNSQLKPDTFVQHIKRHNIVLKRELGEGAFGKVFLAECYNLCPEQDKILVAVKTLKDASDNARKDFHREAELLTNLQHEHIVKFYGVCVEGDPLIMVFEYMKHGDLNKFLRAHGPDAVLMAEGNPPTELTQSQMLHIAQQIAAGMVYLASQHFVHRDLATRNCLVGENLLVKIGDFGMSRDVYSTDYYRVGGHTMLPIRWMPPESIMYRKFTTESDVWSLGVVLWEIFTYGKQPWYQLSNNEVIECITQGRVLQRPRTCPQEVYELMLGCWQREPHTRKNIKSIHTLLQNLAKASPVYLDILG

“Recombinant human BDNF (from UniProt P23560 129-247) (ligand)” returned a Fndc5 gene expression (qPCR) in primary cortical neurons stimulated overnight with BDNF (0.1-100 ng/ml); lowest concentration with a significant reduction of 1 ng/mL.
